Experimental data published in the nanobody polyreactivity screen of Harvey et al. (2022).

Test: yeast display, Sf9 membrane polyspecificity reagent, FACS + sequencing; frameworks hold sequencing errors
In short: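 Sorting gates, low and high (top ~1%), were placed on anti-HA fluorescence to track expression and on streptavidin fluorescence to track reagent binding. A clone's polyreactivity label is taken from the gate it came out of. The reagent was 10% biotinylated, detergent-solubilized Sf9 membrane, applied for 1 hour at 4 °C to galactose-induced yeast display cells.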

| Sequence | polyreactivity (PSR sort gate) |
| --- | --- |
| QVQLVESGGGLVQAGGSLRLSCAASGRIFQRYAMGWYRQAPGKERELVAAISSRGGRTFYADSVKGRFTISRDNAKNTVYLQMNSLKPEDTAAYYCAATATVGSVTFDYWGQGTQVTVSS | high polyreactivity |
| QVQLVESGGGLVQAGGSLRLSCAPSGRTFYTYAMGWYRQAPGKERELVAAITRRGGSTFYADSVKGRFTISLDNAKNPVDLQMNSLKPEDTAVYYCAAGVVWSYSLYSIYEYDYWGQGTQVTVSS | high polyreactivity |
| QVQLVESGGGLVQAGGSLRLSCAASGRIFVYYTMGWYRPAPGKERELVAAIRSSGGSTYADSVKGRFTISRDNAKNTVSLQMNSLKPEDTAVYYCNAGYRSWQYRSGLYGDYNYWGQGTQVTVSS | high polyreactivity |
| QVQLVESGGGLVQAGGSLRLSCAASGSIFYANAMGWYSQAPGKERELVAVISSGGGTYADSVKGRFTISRDNAKNTVYLQMNSLKPEDTAVYYCAADYTRESSMYYWGQGTQVTVSS | low polyreactivity |
| QVQLVESGGGLVQAGGSLRLSCAASGFIFRYYAMGWYRQAPGKERELVAAITSRGSSTYYADSVKGRFTISRDNAKNTVYLQMNSLKPEDTAVYYCAARLRGDYVRYYYWGQGTQVTVSS | high polyreactivity |
| QVQLVESGGGLVQAGGSLRLSCAASGGIFESYAMGWYRQAPGKERELVASISSGGSTYYADSVKGRFTISRDNAKNTVYLQMNSLKPEDTAVYYCEYYYWGQGTQVTVSS | low polyreactivity |
| QVQLVESGGGLVQAGGSLRLSCAASGYIFERNAMGWYRQAPGKERELVAAITDDGDDTYYADSVKGRFTISRDNAKNTVYLQMNSLKAEDTAVYYCAKDLYYGDYYYWGQGTQVTVSS | low polyreactivity |
| QVQLVESGGGLVQAGGSLRLSCAASGRTFYIYTRGWYRQAPGKERELVAAISSSGDSTYYADSVKGRFTISRDNAKNTVYLQMNSLKPEDTAVYYCAAYPTYPDEYWGQGTQVTVSS | low polyreactivity |
| QVQLVESGGGLVQAGGSLRLSCAASGRTLYGYAMGWYRQAPGKERELVASIRSGGSTNYADSVKGSFTISRDNAKNTVYFQMNSLKQEYTAVYYCAAEPYYSYGYYHAHGRDVGYWGQGTQVTVSS | low polyreactivity |
| QVQLQESGGGLVQAGGSLRLTCAASGTISQEDWLGWYLQAPGKEREFVAAIGLGSNTNYADSLKGRFTISRDNAQNTVYLQMNSLKAEYTAVYYCAVSVWQYSDHVYRGQGTQVTVSS | low polyreactivity |
| QVQLVESGGGLVQAGGSLRLSCAASGGTFGSNTMGWYRQAPGKERELVAAITSGVSTNYADSVKGRFTISRDNAKNTVYLQMISLKPEDTAVYYCAKDLWSEEYETIITSYGFDYWGQGTQVTLSS | low polyreactivity |
| QVQLVESGGGLVHAGGSLRLSCAASGFTFSFYAMGWYRQAPGKERELVATITGSGVRTYYADSVKGRFTISRDNAKNTVYLQMNSLKPEDTAVYYCNRQGFTHRGYYWGQGTQVTVSS | high polyreactivity |
| QVQLVESGGGLVQAGGSLRLSCAASGSIFDNNSMGWYRQAPGKERELVAAIDWSDGSTYYADSVKWRFTISRDNAKNTVYLQMNSLIPEDTSVYYCATVGKQKYDAKYGYWGQGTQVTVSS | high polyreactivity |
| QDQLVESGGGLVQAGGSLRFSCAASGRIFTYYTMGWYRQAPGKERELVARITFSAGRTYYADSVKGRFTISRDNAKNTVYLQMNSLKPEDTAVYYCAARSYHYRNYYWGQGTQVTVSS | high polyreactivity |
| QVQLVESGGGLVQAGGSLRLSCAASGRILGAYAMGWYRQAPGKERELVASISSGGRTYYADSVKGRFTISRDNAKNTVYLQINSLKQEDTAVYYCAAEYFIWSYPRYEYWGQGTQVNVSS | high polyreactivity |
| QVQLVESGGGLVQAGGSLRLSCAASGSTFYEYAMGWYRPAPGKERELVAAISSGGSTYYADSVKGRFTISRDNAKNTVYLQMNSLKPEDTAVYYCNSDCQTYGGEYDYWGQGTQVTVSS | low polyreactivity |

| Sequence | polyreactivity (PSR sort gate) |
| --- | --- |
| QVQLVDSGGGLVQAGGSLRLSCAASGLIFAYYAMGWYRKAPGKERELVAAISSVGSTYYADSVKGRFTISRDNAKNTVYLQMNSLKPEDTSVYYCAAALYPYYWPEYNYWGQGTQVTVSS | high polyreactivity |
| QVQLVESGGGLVQAGGSLRLSCAASGRIFSNNAMGWYRQAPGKERELVAAITNSGGSTYYADSVKGRFTISRDNAKNTVYLQMNSLKPEDTAVYYCNARSKVAYYRHYYWGQGTQVTVSS | low polyreactivity |
| QVQLVESGGGLVQAGGILRLSCAASGIIFSQYTMGWYRQAPGKESELVAAISYTGGRTYYADSVKGRFTISRDNAMNTVYLQMNSLKPEDTAVYYCAADFPIVWYEEYYWGQGTQVTVSS | high polyreactivity |
| QVQLVESGGGLVQAGGSLRLSCAASGSTLAVYAMLWYRQAPGKERELVAAISYSGGGTYYADSVKGRFTISRDNAKNTVYLQMNSLKPEDTAVYYCATDLYYEYFTWDYYWGQGTQVTVSS | low polyreactivity |
| QVQLEESGGGLVQAGGSLRLSCAASGFIFTPYAMGWYRQAPGKERELVAAISRSGGSTYYADSVKGRFTISRDNAKNTVYLQMNSLKPEDTAVYYCAADVYRTAYYYGSYYWGQGTQVTVSS | high polyreactivity |
| QVQLVESGGGLVQAVGSLRLSCAASGSTLSFNAMGWYRQAPGKERELVAGITYSGGSTYYADSVKGRFTISRDNAKNTVYLQMNSLKPEDTAVYYCNKASGVYYGHLDYWGQGTQVTVSS | low polyreactivity |
| QGQLVESGGGLVQAGGSLRLSCAASGRIFVKNAMGWYRQAPGKERELVAAINWRGTSTYYADSVKGRFTISRDNAKNTVYLQMNSLKPEDTAVYYCNRVLGYPYGVDYWGQGTQVTVSS | high polyreactivity |
| QVQLVESGGGLVQAGGSLRLSCAASGIIFYKYAMGWYRQAPGKERELVAAITSGGGRTYYADSVKGRFTISRDNPKNSVYLQMNSLKPEDTAVYYCAATRPATYAAYDYWGQGTQVTVSS | high polyreactivity |
| QVQLVESGGGLVQAGGSLRISCAASGLTFTSNVMGWYRQAPGKERELVAAISSGGSTYYADSVKGRFTISRDNAKNTVYLQMNSLKPEDTAVYYCNTKLWGQYDYWGQGTQVTVSS | low polyreactivity |
| QDQLVESGGGLVQAGGSLRISCAASGRIFYYYGMGWYRQAPGKEWELVAAITSDGDTNYADSVKGRLTISRDNAKNTVYLQMNSLKPADTAVYYCAGKWDWGYWRGFQYGFNYWGQGTQVTVSS | low polyreactivity |
| QVQLVESGRGLVQAGGSLRLSSAASGSTFHQYTMGWYRQAPGKERELVAGITYRGGSTYADSVKGLFTISRDNAKNTVYLQMNSLKPDDTAVYYCNATPDSVRWDYALSVVRYDYWGQGTQVTVSS | low polyreactivity |
| QVQHVESGGGLVQAGGSLRLSCAASGITFFFNAIGWYRQATGKQRQLVAAITSRGGRTYYADSVKGRFTISRDNAKYTVYLQMNSLKPEDTAVYYCAATKKTGYYRYYYWGQGTQVTVSS | high polyreactivity |
| QVQLVESGGGLVQAGGSLRLSCAASGRTFSYYAMGWYRQAPGKERELVASISYSAGRTYYADSVKGRFTISRDNAKNTVYLQMNSLKPEDTAVYYCAVRGVRRFPVRTGSYTRYGDYYWGQGTQVTVSS | high polyreactivity |
| QVQLVESGGGLVQAGGSLRLSCAASGFTFYTYAMGWYRQAPGKERELVAAISGSGSRTYYADSVKGRFTISRDNAKNTVYLQMNSLKPEDTAVYYCNAGYGSGSLHREFNYWGQGTQVTVSS | low polyreactivity |
| QFQLVESAGGLLQAGGSLRIICAASGSTFGYNAMGWYRQAPGKERELVAAITGGGTTNYADSVKGRFTISRDNAKNTVYLQMNSLKPEDTAVYYCAASARRFFFPIYGLYYWGQVTQVTVSS | high polyreactivity |
| QVQLVESGGGLVKAGGSLRLSCAATGRIFTYMGWYRQARGKERELVAGISWRGTSTYYADSVKGRFTISRDNAKNSVYLQMNSLKPEDTAVYYCAARWAYHVRGDYWGQGTQVTVSS | low polyreactivity |
